Publication PMC8303780, “Mutational Analysis of Redβ Single Strand Annealing Protein: Roles of the 14 Lysine Residues in DNA Binding and Recombination In Vivo”
Changes are numbered by the printed parent chain.

Assays:
Experiment in all cases: fluorescence anisotropy
Conditions in all cases: Anisotropy: 50 mM Tris-HCl pH 7.5, 1 mM DTT, 0.1 mg/mL BSA, 10 nM FAM48, 23 °C (Kd per monomer), gel assay: 10 µM Redβ, 50 µM nt of each oligo, PBS, 37 °C
[1] = target: T1, Redβ K258A K258A (bacteriophage λ) (UniProt P03698)
T1 sequence: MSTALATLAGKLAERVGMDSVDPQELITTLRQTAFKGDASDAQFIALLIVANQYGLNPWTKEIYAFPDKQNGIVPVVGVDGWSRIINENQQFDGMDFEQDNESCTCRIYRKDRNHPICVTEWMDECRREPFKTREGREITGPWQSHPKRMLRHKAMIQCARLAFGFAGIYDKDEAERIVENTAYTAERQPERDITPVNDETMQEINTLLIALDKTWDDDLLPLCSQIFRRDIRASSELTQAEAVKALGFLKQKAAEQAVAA

[2] = target: T2, Redβ K154A K154A (bacteriophage λ) (UniProt P03698)
T2 sequence: T1 sequence with K154A, A258K

[3] = target: T3, Redβ K253A K253A (bacteriophage λ) (UniProt P03698)
T3 sequence: T1 sequence with K253A, A258K

[4] = target: T4, Redβ K132A K132A (bacteriophage λ) (UniProt P03698)
T4 sequence: T1 sequence with K132A, A258K

[5] = target: T5, Redβ K214A K214A (bacteriophage λ) (UniProt P03698)
T5 sequence: T1 sequence with K214A, A258K

[6] = target: T6, Redβ K61A K61A (bacteriophage λ) (UniProt P03698)
T6 sequence: T1 sequence with K61A, A258K

[7] = target: T7, Redβ K245A K245A (bacteriophage λ) (UniProt P03698)
T7 sequence: T1 sequence with K245A, A258K

[8] = target: T8, Redβ K111A K111A (bacteriophage λ) (UniProt P03698)
T8 sequence: T1 sequence with K111A, A258K

[9] = target: T9, Redβ K36A K36A (bacteriophage λ) (UniProt P03698)
T9 sequence: T1 sequence with K36A, A258K

FAM48 48-mer ssDNA
Kd [1]: 110 nM | Kd [2]: 2100 nM | Kd [3]: 210 nM | Kd [4]: 1770 nM | Kd [5]: 310 nM | Kd [6]: 390 nM | Kd [7]: 160 nM | Kd [8]: 2400 nM | Kd [9]: 530 nM
